± gives the standard deviation of the averaged measurements.
Columns and labels:
Saccharomyces cerevisiae [1] = assay: protein stability index of tFT-peptide fusion (C-terminal peptide) (PSI (0-1 scale)); higher = more stable (slower turnover); details: genetic background: wild type; temperature: 30 C
Saccharomyces cerevisiae [2] = assay: as above
Method: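 MPS profiling in S. cerevisiae of the tFT-X12 degron library: putative degron peptides plus stable controls, 12 aa, fused to the C-terminus of a sfGFP-mCherry timer. Cells are FACS-sorted into 8 mCherry/sfGFP bins and deep-sequenced. PSI runs from 0 (unstable) to 1 (stable). Backgrounds are wild type, das1Δ and doa10Δ at 30 °C, and wild type, das1Δ, cdc34-1 and cdc53-1 at 37 °C; 2-3 technical replicates each.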

[3] = genetic background: cdc34-1, temperature: 37 C
[4] = genetic background: cdc53-1, temperature: 37 C
[5] = genetic background: das1 deletion, temperature: 30 C
[6] = genetic background: das1 deletion, temperature: 37 C
[7] = genetic background: doa10 deletion, temperature: 30 C
[8] = genetic background: wild type, temperature: 30 C
[9] = genetic background: wild type, temperature: 37 C
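Further: PSI is a weighted mean of sequencing reads over stability bins, variants kept only with over 10 reads, mCherry proximal and sfGFP distal, peptide attached via GGGS linker.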

Sequence	protein stability index (Saccharomyces cerevisiae [1])	protein stability index (Saccharomyces cerevisiae [2]; [3])	protein stability index (Saccharomyces cerevisiae [2]; [4])	protein stability index (Saccharomyces cerevisiae [2]; [5])	protein stability index (Saccharomyces cerevisiae [2]; [6])	protein stability index (Saccharomyces cerevisiae [2]; [7])	protein stability index (Saccharomyces cerevisiae [2]; [8])	protein stability index (Saccharomyces cerevisiae [2]; [9])
LLLLFPSPLFIR	0.281 ± 0.05	0.126 ± 0.057	0.0999 ± 0.026	0.235 ± 0.012	0.303 ± 0.022	0.553 ± 0.024	0.216 ± 0.019	0.272 ± 0.02
WFFRLFFLFFSG	0.383 ± 0.0048	0.34 ± 0.008	0.335 ± 0.019	0.4 ± 0.028	0.502 ± 0.019	0.563 ± 0.022	0.371 ± 0.019	0.412 ± 0.02
VGVCGSSGRVGG	0.7 ± 0.025	0.688 ± 0.03	0.7314 ± 0.0042	0.641 ± 0.014	0.718 ± 0.0032	0.643 ± 0.021	0.645 ± 0.012	0.717 ± 0.024
LVLELYRFARFG	0.3197 ± 0.0012	0.636 ± 0.03	0.7337 ± 0.0046	0.643 ± 0.0069	0.742 ± 0.015	0.2704 ± 0.00045	0.276 ± 0.043	0.532 ± 0.038
MACLRLTVYVMG	0.283 ± 0.017	0.0763 ± 0.013	0.0769 ± 0.045	0.135 ± 0.031	0.2187 ± 0.0016	0.088 ± 0.034	0.13 ± 0.026	0.202 ± 0.0036
GGGVGGAVVLFW	0.408 ± 0.013	0.651 ± 0.023	0.764 ± 0.029	0.527 ± 0.016	0.718 ± 0.0021	0.528 ± 0.01	0.565 ± 0.027	0.716 ± 0.0033
DFWMLLFGIIFA	0.449 ± 0.019	0.488 ± 0.041	0.521 ± 0.011	0.389 ± 0.027	0.565 ± 0.033	0.387 ± 0.015	0.4 ± 0.027	0.538 ± 0.017
VECPWFCLGVLA	0.3848 ± 0.0018	0.336 ± 0.027	0.318 ± 0.018	0.278 ± 0.04	0.4359 ± 0.0013	0.2324 ± 0.001	0.284 ± 0.022	0.416 ± 0.0065
VNILFCLFFLLV	0.412 ± 0.013	0.449 ± 0.02	0.554 ± 0.027	0.419 ± 0.021	0.564 ± 0.023	0.392 ± 0.025	0.36 ± 0.0062	0.4772 ± 0.0041
IILAIRLLVDTL	0.248 ± 0.021	0.0479 ± 0.026	0.179 ± 0.012	0.146 ± 0.025	0.266 ± 0.011	0.12 ± 0.0039	0.132 ± 0.025	0.238 ± 0.026
NHKTIRIQNKSI	0.302 ± 0.031	0.67783 ± 7.8e-06	0.775 ± 0.045	0.64 ± 0.034	0.699 ± 0.0092	0.146 ± 0.0041	0.143 ± 0.051	0.424 ± 0.044
GLLGRCPVVVFG	0.378 ± 0.061	0.385 ± 0.041	0.397 ± 0.013	0.273 ± 0.04	0.49774 ± 0.00049	0.216 ± 0.013	0.285 ± 0.026	0.463 ± 0.0047
LLVFFLAIPSLV	0.337 ± 0.031	0.286 ± 0.011	0.343 ± 0.02	0.23 ± 0.037	0.413 ± 0.0073	0.195 ± 0.014	0.219 ± 0.033	0.3853 ± 0.002
AFVALCACVIFV	0.302 ± 0.025	0.175 ± 0.015	0.249 ± 0.026	0.215 ± 0.039	0.362 ± 0.005	0.178 ± 0.016	0.202 ± 0.026	0.302 ± 0.0078
CSFCSGMILLLS	0.418 ± 0.0062	0.522 ± 0.055	0.557 ± 0.018	0.433 ± 0.02	0.583 ± 0.0064	0.391 ± 0.004	0.323 ± 0.044	0.527 ± 0.028
LCFTSVFTLFIC	0.101 ± 0.024	0.288 ± 0.028	0.469 ± 0.026	0.382 ± 0.026	0.511 ± 0.006	0.0848 ± 0.017	0.0664 ± 0.0089	0.0756 ± 0.015
VHGWRPLLFHTR	0.519 ± 0.13	0.648 ± 0.032	0.668 ± 0.0099	0.647 ± 0.0073	0.702 ± 0.031	0.674 ± 0.024	0.622 ± 0.024	0.6989 ± 0.0063
LLYHFCLFFFRE	0.513 ± 0.044	0.521 ± 0.044	0.592 ± 0.037	0.462 ± 0.024	0.619 ± 0.014	0.441 ± 0.015	0.449 ± 0.011	0.558 ± 0.053
VGEQEVVGIGGV	0.695 ± 0.018	0.674 ± 0.039	0.7077 ± 0.0065	0.653 ± 0.021	0.735 ± 0.046	0.642 ± 0.026	0.646 ± 0.023	0.719 ± 0.03
LRCCGALPLYAY	0.348 ± 0.018	0.251 ± 0.038	0.248 ± 0.03	0.238 ± 0.038	0.3968 ± 0.0033	0.189 ± 0.014	0.228 ± 0.028	0.341 ± 0.022

Sequence	protein stability index (Saccharomyces cerevisiae [1])	protein stability index (Saccharomyces cerevisiae [2]; [3])	protein stability index (Saccharomyces cerevisiae [2]; [4])	protein stability index (Saccharomyces cerevisiae [2]; [5])	protein stability index (Saccharomyces cerevisiae [2]; [6])	protein stability index (Saccharomyces cerevisiae [2]; [7])	protein stability index (Saccharomyces cerevisiae [2]; [8])	protein stability index (Saccharomyces cerevisiae [2]; [9])
GNIHHTRFLALL	0.458 ± 0.0074	0.838 ± 0.04	0.859 ± 0.012	0.7472 ± 0.0026	0.835 ± 0.012	0.485 ± 0.017	0.498 ± 0.013	0.693 ± 0.024
GLCGVCLVRCVG	0.338 ± 0.019	0.3008 ± 0.00051	0.412 ± 0.024	0.275 ± 0.031	0.478 ± 0.0052	0.211 ± 0.0051	0.249 ± 0.036	0.393 ± 0.0046
AVSFVTLSIMVM	0.195 ± 0.032	0.0451 ± 0.007	0.0958 ± 0.092	0.153 ± 0.016	0.163 ± 0.0065	0.135 ± 0.005	0.157 ± 0.018	0.1217 ± 0.0011
LLTLILRIFVLN	0.225 ± 0.024	0.304 ± 0.031	0.451 ± 0.0055	0.316 ± 0.028	0.476 ± 0.028	0.144 ± 0.01	0.147 ± 0.028	0.217 ± 0.037
HNQDKNVKYKIG	0.41 ± 0.037	0.672 ± 0.023	0.733 ± 0.034	0.625 ± 0.032	0.705 ± 0.021	0.248 ± 0.006	0.33 ± 0.039	0.536 ± 0.0064
FWFLWAKMLLSC	0.175 ± 0.022	0.253 ± 0.015	0.212 ± 0.064	0.252 ± 0.032	0.377 ± 0.0081	0.0958 ± 0.02	0.109 ± 0.027	0.138 ± 0.023
HRHCVSSYQKVS	0.401 ± 0.054	0.662 ± 0.08	0.708 ± 0.013	0.648 ± 0.028	0.715 ± 0.0042	0.242 ± 0.0074	0.285 ± 0.027	0.556 ± 0.01
SVVLCRFVLRIF	0.128 ± 0.018	0.0423 ± 0.011	0.109 ± 0.055	0.136 ± 0.015	0.181 ± 0.039	0.0747 ± 0.0075	0.0735 ± 0.017	0.136 ± 0.038
SCYDYVILLQLS	0.304 ± 0.026	0.506 ± 0.051	0.65547 ± 0.00031	0.435 ± 0.04	0.619 ± 0.025	0.178 ± 0.01	0.213 ± 0.042	0.393 ± 0.0047
LPVPVLGFPPLA	0.7186 ± 0.0014	0.703 ± 0.022	0.778 ± 0.018	0.664 ± 0.018	0.732 ± 0.032	0.659 ± 0.027	0.655 ± 0.015	0.71 ± 0.011
PVPPSLLHRPPF	0.33 ± 0.014	0.679 ± 0.056	0.736 ± 0.045	0.682 ± 0.014	0.722 ± 0.018	0.677 ± 0.011	0.673 ± 0.021	0.727 ± 0.027
PPPPLATTSAPL	0.719 ± 0.04	0.687 ± 0.046	0.74266 ± 0.0006	0.661 ± 0.0092	0.7118 ± 0.0031	0.668 ± 0.029	0.665 ± 0.015	0.6919 ± 0.0013
FVVQSLNQMRLN	0.441 ± 0.034	0.693 ± 0.025	0.727 ± 0.02	0.656 ± 0.035	0.718 ± 0.019	0.354 ± 0.0096	0.379 ± 0.025	0.62 ± 0.025
GREGETGSKAGR	0.552 ± 0.17	0.675 ± 0.008	0.708 ± 0.013	0.64 ± 0.024	0.7282 ± 0.003	0.64 ± 0.027	0.669 ± 0.021	0.717 ± 0.015
LLLRQVFSLGVF	0.162 ± 0.0081	0.549 ± 0.048	0.64 ± 0.023	0.558 ± 0.011	0.6741 ± 0.0063	0.104 ± 0.018	0.142 ± 0.014	0.312 ± 0.021
AVLFAPPLSSNF	0.729 ± 0.052	0.712 ± 0.03	0.78169 ± 0.00024	0.64 ± 0.014	0.7729 ± 0.0067	0.657 ± 0.026	0.6489 ± 0.0039	0.739 ± 0.0078
GGIRLRVRFFVI	0.247 ± 0.019	0.584 ± 0.061	0.658 ± 0.011	0.53 ± 0.026	0.6152 ± 0.0058	0.158 ± 0.0059	0.168 ± 0.023	0.236 ± 0.016
LLFYSYFFFVLY	0.265 ± 0.0037	0.172 ± 0.034	0.148 ± 0.0098	0.248 ± 0.021	0.341 ± 0.015	0.312 ± 0.023	0.213 ± 0.0032	0.286 ± 0.023
CVLVLLLRLAFL	0.4885 ± 0.0022	0.5506 ± 0.0053	0.5516 ± 0.0013	0.44 ± 0.032	0.5995 ± 0.0041	0.467 ± 0.027	0.434 ± 0.0093	0.561 ± 0.015

From the supplement of paper PMC10724198
